The labels stand for the following.
B2: Atto488-CHCHD4 (natural protein, human, UniProt Q8N4Q1 1-142, looked up)
chain: MSYCRQEGKDRIIFVTKEDHETPSSAELVADDPNDPYEEHGLILPNGNINWNCPCLGGMASGPCGEQFKSAFSCFHYSTEEIKGSDCVDQFRAMQECMQKYPDLYPQEDEDEEEEREKKPAEQAEETAPIEATATKEEEGSS
modifications: ATTO 488 (NHS ester) on the N-terminus
notes: not shown: GB1-6X-His, N-terminal, cleaved

Conditions in all cases: both partners purified
Experiment [1] deals with B2. The experiment can be described thus: MST; AIF allostery mutants titrated (1.8 nM–30 µM) into 100 nM Atto488-CHCHD4 without NADH; 25 mM HEPES pH 7.5, 150 mM NaCl, 0.01% Tween-20, 5 mM TCEP; 25 °C.
The target of experiment [2] is T1, AIF(78-613), wild type (human, UniProt O95831 78-613).
T1 construct: Apoptosis-inducing factor (AIF), human, residues 78-613, lacking the inner mitochondrial membrane tether; Construct from Brosey et al 2016; also called Apoptosis-inducing factor; AIF + NADH; source: E. coli Rosetta2(DE3), purified (Ni-NTA, PreScission cleavage, subtractive Ni-NTA, Superdex 200)
The experiment can be described thus: MST; wild-type AIF titrated (1.8 nM–30 µM) into 100 nM Atto488-CHCHD4 with 300 µM NADH; 25 mM HEPES pH 7.5, 150 mM NaCl, 0.01% Tween-20, 5 mM TCEP; 25 °C.

In experiment [3] the target is T2, AIF-W196A (human, UniProt O95831 78-613, W196A).
T2 construct: Apoptosis-inducing factor (AIF), human, allostery mutant lacking the inner mitochondrial membrane tether; limits read as those of the wild type, 78-613; source: E. coli Rosetta2(DE3), purified (Ni-NTA, PreScission cleavage, subtractive Ni-NTA, Superdex 200)
The experiment can be described thus: MST; AIF allostery mutants titrated (1.8 nM–30 µM) into 100 nM Atto488-CHCHD4 without NADH; 25 mM HEPES pH 7.5, 150 mM NaCl, 0.01% Tween-20, 5 mM TCEP; 25 °C.

In experiment [4] the target is T3, AIF-R529A (human, UniProt O95831 78-613, R529A).
T3 construct: Apoptosis-inducing factor (AIF), human, allostery mutant lacking the inner mitochondrial membrane tether; limits read as those of the wild type, 78-613; source: E. coli Rosetta2(DE3), purified (Ni-NTA, PreScission cleavage, subtractive Ni-NTA, Superdex 200)
The description is as above.

B1: AIF-ΔC-loop (domain or fragment)
chain: VGAGAYAYKTMKEDEKRYNERISGLGLTPEQKQKKAALSASEGEEVPQDKAPSHVPFLLIGGGTAAFAAARSIRARDPGARVLIVSEDPELPYMRPPLSKELWFSDDPNVTKTLRFKQWNGKERSIYFQPPSFYVSAQDLPHIENGGVAVLTGKKVVQLDVRDNMVKLNDGSQITYEKCLIATGGTPRSLSAIDRAGAEVKSRTTLFRKIGDFRSLEKISREVKSITIIGGGFLGSELACALGRKARALGTEVIQLFPEKGNMGKILPEYLSNWTMEKVRREGVKVMPNAIVQSVGVSSGKLLIKLKDGRKVETDHIVAAVGLEPNVELAKTGGLEIDSDFGGFRVNAELQARSNIWVAGDAACFYDIKLGRRRVEHHDHAVVSGRLAGENMTGAAKPYWHQSMFWSDLGPDVGYEAIGLVDSSLPTVGVFYGKGVIFYLRDKVVVGIVLWNIFNRMPIARKIIKDGEQHEDLNEVAKLFNIHED
On to B1, for which, in experiment [1], binding was characterised by a dissociation constant (Kd) of 4 µM.

Turning to B2, the Kd (as a rule, a measure of binding affinity in units of concentration) in experiment [2] amounted to 0.34 µM; in experiment [3], 2.2 µM; in experiment [4], 2.5 µM.

Values taken from publication PMC11832770, “NADH-bound AIF activates the mitochondrial CHCHD4/MIA40 chaperone by a substrate-mimicry mechanism” (The EMBO Journal, 2025).
